The supplement of paper PMC10724198
± gives the standard deviation of the averaged measurements.

System: Saccharomyces cerevisiae
Experiment: protein stability index of tFT-peptide fusion (C-terminal peptide) (PSI (0-1 scale)); higher = more stable (slower turnover)
Conditions: genetic background: wild type; temperature: 30 C
Method: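 Multiplexed protein stability (MPS) profiling in S. cerevisiae. Random 12-aa peptides (tFT-X12 library) are fused to the C-terminus of a sfGFP-mCherry tandem fluorescent timer, after mCherry and a GGGS linker. Cells are FACS-sorted into 8 mCherry/sfGFP bins and deep-sequenced. The protein stability index (PSI) is the read-weighted bin average, scaled from 0 (unstable) to 1 (stable). Only peptides with >10 reads are reported; cells were grown at 30 °C in SC-His with glucose.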
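Further: PSI is a weighted mean of sequencing reads over stability bins, variants kept only with over 10 reads, mCherry proximal and sfGFP distal, peptide attached via GGGS linker.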

Sequence | protein stability index
GWGGGSMDLRDR | 0.702 ± 0.011
GWGGSIGEEWGG | 0.687 ± 0.022
GWGPWGRVGRGG | 0.688 ± 0.032
GWLGGGGVVWWG | 0.718 ± 0.017
GWMLGAVRRGVI | 0.694 ± 0.032
GWMSGTPEFLGS | 0.707 ± 0.025
GWPVSICGSTQN | 0.754 ± 0.058
GWQLWGFCLSGP | 0.637 ± 0.032
GWRGGGSDGGLR | 0.718 ± 0.086
GWSCRGVGGGLG | 0.708 ± 0.045
GWVGGCGCGRGI | 0.694 ± 0.034
GWVRCGGGAGVG | 0.622 ± 0.056
GWVWILGRGRGR | 0.637 ± 0.044
GWWGGCRSGVPE | 0.672 ± 0.069
GYADDEEEYVTL | 0.737 ± 0.023
GYETTQSGFLSS | 0.5887 ± 0.0022
GYLVPLPSSGSS | 0.661 ± 0.057
GYNTSMHVQYQT | 0.764 ± 0.02
GYSFWSCVAFFS | 0.628 ± 0.0068
GYSPLHPILLGL | 0.577 ± 0.013
HAEREDTESQTR | 0.714 ± 0.05
HAKVFLMGCSYV | 0.692 ± 0.072
HALSVDPAFKQS | 0.66 ± 0.05
HATPPPLPSPPL | 0.71976 ± 0.0003
HCLLPLTTRRGR | 0.7 ± 0.026
HDAKIGTSTCWV | 0.654 ± 0.024

Sequence | protein stability index
HDGPYPALLATK | 0.606 ± 0.069
HDHRTLMRQPTR | 0.697 ± 0.037
HDMTGARKTHIA | 0.676 ± 0.023
HDRIHWDLDLSE | 0.617 ± 0.041
HEGHVWGIRGTG | 0.683 ± 0.11
HEKTGNNHKRGH | 0.628 ± 0.19
HERPVVLYGCTS | 0.637 ± 0.02
HFIDFVVVSFSI | 0.548 ± 0.095
HFSLCSNRSNPP | 0.646 ± 0.015
HFSTSFYSSAFR | 0.631 ± 0.026
HGAEAWPDVGPG | 0.639 ± 0.021
HGGEPHPSFGFS | 0.697 ± 0.062
HGIGRDTSEHGR | 0.645 ± 0.025
HGLGSWGTFLGV | 0.655 ± 0.021
HGPGGFRAGTGE | 0.724 ± 0.027
HGRSGGGKGAER | 0.674 ± 0.038
HGSDLSILRIEI | 0.722 ± 0.07
HHCGGRVLGAGG | 0.7073 ± 0.0056
HHPTTQRLSVIH | 0.742 ± 0.042
HHRRRRTTDVSL | 0.75 ± 0.049
HIEGRKHKDVAM | 0.668 ± 0.062
HKVETHQIIQIK | 0.726 ± 0.043
HLFAISGGKERI | 0.6966 ± 0.0039
HLFVCGNGVSAT | 0.684 ± 0.029
HLGHPSSRPSCL | 0.72 ± 0.057
HLGQPRPSCPLF | 0.662 ± 0.088

Sequence | protein stability index
HLLLLDLTRPIL | 0.745 ± 0.061
HLLRGSSPDRYV | 0.737 ± 0.019
HLRIAHTPDSPR | 0.703 ± 0.0082
HLSSPPSLLPPP | 0.657 ± 0.05
HLSWFSPFFASG | 0.772 ± 0.018
HLVPYVVKHLVP | 0.6785 ± 0.0062
HLWAPRQNTIRY | 0.649 ± 0.091
HMRPSTRLMPAG | 0.593 ± 0.01
HNGYLKRIKISR | 0.707 ± 0.085
HNSRTVPISVSV | 0.528 ± 0.038
HNVLVYCGCALG | 0.6032 ± 0.0036
HPAALTPVPALH | 0.661 ± 0.036
HPFSLGSLVASW | 0.6412 ± 0.0027
HPISLSYPSPFV | 0.665 ± 0.13
HPPAFSAKTFPS | 0.683 ± 0.043
HPPPPRLPPRPP | 0.63 ± 0.02
HPPRPPPRSPPP | 0.656 ± 0.1
HPPSLPPLPPPL | 0.727 ± 0.054
HPPSPPSRVSPS | 0.594 ± 0.032
HPPTCTTVLPTL | 0.579 ± 0.023
HPTDPPFRNTTA | 0.6996 ± 0.0043
HPTLPSLQVSPS | 0.689 ± 0.031
HQLSQYEGARTL | 0.733 ± 0.064
HQRIKLMPEVWS | 0.689 ± 0.056
HRAPACEHDIKK | 0.705 ± 0.015
HRKVCARHNWEE | 0.673 ± 0.046

Sequence | protein stability index
HRLQGQGAWYVT | 0.643 ± 0.061
HRPGYLTSSASD | 0.65 ± 0.062
HRPPPPPSPSHL | 0.686 ± 0.01
HRQAFSAVPCIH | 0.588 ± 0.042
HRSHVRHSFPNP | 0.703 ± 0.038
HRTSVRIPIPPI | 0.683 ± 0.012
HRWCLADYVEVG | 0.773 ± 0.063
HRWSRGIDATGV | 0.665 ± 0.083
HSCPLLLAPPPS | 0.608 ± 0.058
HSCYGHIRVSFC | 0.705 ± 0.0098
HSGAPFPPDSPR | 0.783 ± 0.16
HSINNVITNNTE | 0.678 ± 0.017
HSSLHLTRALCL | 0.677 ± 0.043
HSSRSPPPSPYA | 0.709 ± 0.042
HSSSASPPISSF | 0.657 ± 0.041
HSTEKGIMLNEY | 0.704 ± 0.19
HSTESHHQLDNQ | 0.649 ± 0.026
HSTPPSPAPPTA | 0.675 ± 0.062
HSVVANECHQGQ | 0.766 ± 0.11
HTAITSGYSRGL | 0.633 ± 0.049
HTGTCSVLPHTL | 0.663 ± 0.052
HTLQDNHRLPRA | 0.6058 ± 0.0029
HTPRLRRMRDYH | 0.658 ± 0.087
HTRIGDGSRLLA | 0.72666 ± 0.00065
HVHLHSTTAPPP | 0.695 ± 0.015
HVTHPGCTLQLR | 0.707 ± 0.071

Sequence | protein stability index
HWLGCDESRGWV | 0.668 ± 0.037
HYFRSIFLFVVR | 0.506 ± 0.017
HYGQRKKEFRLT | 0.73 ± 0.0075
HYWTTENDWPHG | 0.705 ± 0.025
IADLGDLTKVTL | 0.693 ± 0.019
IALACPGGSYIV | 0.6739 ± 0.0024
IALTSVRIPSSP | 0.678 ± 0.047
IARSVLRIGVWG | 0.612 ± 0.045
IASASGAQAGAR | 0.636 ± 0.017
ICAPSPSPAFTF | 0.689 ± 0.0086
ICMGSLLYVGPC | 0.5515 ± 0.0034
ICVYGGRKISPG | 0.6877 ± 0.00097
IDLWGNGRCVEL | 0.701 ± 0.048
IEKVKIMNKERN | 0.692 ± 0.017
IFFRARRLEAHT | 0.608 ± 0.019
IFGMSIMLNRIT | 0.541 ± 0.041
IFGVSRTGIRCT | 0.56 ± 0.011
IFKNAWSSYRIE | 0.714 ± 0.037
IFPRPHVDIPLL | 0.922 ± 0.075
IFRSCCLLGLCL | 0.591 ± 0.099
IFYCPPVPTFPL | 0.697 ± 0.024
IGEGLLFWFGIR | 0.66 ± 0.042
IGGAMLSPLKVR | 0.55 ± 0.021
IGGDLGRDSTCL | 0.592 ± 0.11
IGGGPLWLVNNM | 0.6748 ± 0.0054
IGGYNRTFELMG | 0.678 ± 0.032

Sequence | protein stability index
IGRVSVWDQKVA | 0.673 ± 0.054
IGSDFQLFLEGC | 0.668 ± 0.044
IGSEKGKIGVGC | 0.677 ± 0.067
IGTGHPRTGLSR | 0.682 ± 0.031
IIFRLLLSRFFL | 0.543 ± 0.022
IIRAGVPLSISE | 0.652 ± 0.019
IIRKQQAKKVEL | 0.681 ± 0.025
IIRSKGTKSMHK | 0.691 ± 0.013
IIYKPEKMRPKS | 0.7146 ± 0.0068
IKFMTTGVRTMG | 0.662 ± 0.03
IKKKKKKIKRNN | 0.654 ± 0.0099
IKKKKRRKEQEK | 0.7477 ± 0.0035
IKKKTKQKQHEK | 0.786 ± 0.3
IKKRKQYCKRIK | 0.6801 ± 0.0048
IKRIDQYEKQNK | 0.659 ± 0.07
IKRIYQKKIERK | 0.762 ± 0.067
ILDNWQFSYIKD | 0.713 ± 0.051
ILDRRTKREDLK | 0.667 ± 0.038
ILKQYLHRRFEF | 0.709 ± 0.057
ILLFISGPPMSF | 0.735 ± 0.062
ILRPAPVFPLDP | 0.689 ± 0.0089
ILSCLLRSSFQC | 0.606 ± 0.045
ILSSPGLLLFRL | 0.5449 ± 0.005
ILWFYSDSPWLS | 0.763 ± 0.11
IMDHKSNSDKWI | 0.7193 ± 0.0011
